Laboratory results: paper PMC7559292 (Science (New York, N.Y.), 2020)
“And” between values parts separate entries of the source, which are not always exact repeats. Identical values can stand only once.

B3: CTC1 (subunit of purified recombinant human CST) (natural protein, UniProt Q2NKJ3 1-1217, looked up)
chain: MAAGRAQVPSSEQAWLEDAQVFIQKTLCPAVKEPNVQLTPLVIDCVKTVWLSQGRNQGSTLPLSYSFVSVQDLKTHQRLPCCSHLSWSSSAYQAWAQEAGPNGNPLPREQLLLLGTLTDLSADLEQECRNGSLYVRDNTGVLSCELIDLDLSWLGHLFLFPRWSYLPPARWNSSGEGHLELWDAPVPVFPLTISPGPVTPIPVLYPESASCLLRLRNKLRGVQRNLAGSLVRLSALVKSKQKAYFILSLGRSHPAVTHVSIIVQVPAQLVWHRALRPGTAYVLTELRVSKIRGQRQHVWMTSQSSRLLLLKPECVQELELELEGPLLEADPKPLPMPSNSEDKKDPESLVRYSRLLSYSGAVTGVLNEPAGLYELDGQLGLCLAYQQFRGLRRVMRPGVCLQLQDVHLLQSVGGGTRRPVLAPCLRGAVLLQSFSRQKPGAHSSRQAYGASLYEQLVWERQLGLPLYLWATKALEELACKLCPHVLRHHQFLQHSSPGSPSLGLQLLAPTLDLLAPPGSPVRNAHNEILEEPHHCPLQKYTRLQTPSSFPTLATLKEEGQRKAWASFDPKALLPLPEASYLPSCQLNRRLAWSWLCLLPSAFCPAQVLLGVLVASSHKGCLQLRDQSGSLPCLLLAKHSQPLSDPRLIGCLVRAERFQLIVERDVRSSFPSWKELSMPGFIQKQQARVYVQFFLADALILPVPRPCLHSATPSTPQTDPTGPEGPHLGQSRLFLLCHKEALMKRNFCVPPGASPEVPKPALSFYVLGSWLGGTQRKEGTGWGLPEPQGNDDNDQKVHLIFFGSSVRWFEFLHPGQVYRLIAPGPATPMLFEKDGSSCISRRPLELAGCASCLTVQDNWTLELESSQDIQDVLDANKSLPESSLTDLLSDNFTDSLVSFSAEILSRTLCEPLVASLWMKLGNTGAMRRCVKLTVALETAECEFPPHLDVYIEDPHLPPSLGLLPGARVHFSQLEKRVSRSHNVYCCFRSSTYVQVLSFPPETTISIPLPHIYLAELLQGGQSPFQATASCHIVSVFSLQLFWVCAYCTSICRQGKCTRLGSTCPTQTAISQAIIRLLVEDGTAEAVVTCRNHHVAAALGLCPREWASLLDFVQVPGRVVLQFAGPGAQLESSARVDEPMTMFLWTLCTSPSVLRPIVLSFELERKPSKIVPLEPPRLQRFQCGELPFLTHVNPRLRLSCLSIRESEYSSSLGILASSC
B4: STN1 (subunit of purified recombinant human CST) (natural protein, UniProt Q9H668 1-368, looked up)
chain: MQPGSSRCEEETPSLLWGLDPVFLAFAKLYIRDILDMKESRQVPGVFLYNGHPIKQVDVLGTVIGVRERDAFYSYGVDDSTGVINCICWKKLNTESVSAAPSAARELSLTSQLKKLQETIEQKTKIEIGDTIRVRGSIRTYREEREIHATTYYKVDDPVWNIQIARMLELPTIYRKVYDQPFHSSALEKEEALSNPGALDLPSLTSLLSEKAKEFLMENRVQSFYQQELEMVESLLSLANQPVIHSASSDQVNFKKDTTSKAIHSIFKNAIQLLQEKGLVFQKDDGFDNLYYVTREDKDLHRKIHRIIQQDCQKPNHMEKGCHFLHILACARLSIRPGLSEAVLQQVLELLEDQSDIVSTMEHYYTAF

Columns and labels:
negative-stain EM = target: the molecule itself; test: negative-stain EM
[1] = target: B4; test: cryo-EM structure
[2] = target: B3; test: cryo-EM structure
cryo-EM structure = target: the molecule itself; test: cryo-EM structure

B1: human CTC1-STN1-TEN1 (CST) complex, purified recombinant heterotrimer (complex)
chain 1: AAGRAQVPSSEQAWLEDAQVFIQKTLCPAVKEPNVQLTPLVIDCVKTVWLSQGRNQGSTLPLSYSFVSVQDLKTHQRLPCCSHLSWSSSAYQAWAQEAGPNGNPLPREQLLLLGTLTDLSADLEQECRNGSLYVRDNTGVLSCELIDLDLSWLGHLFLFPRWSYLPPARWNSSGEGHLELWDAPVPVFPLTISPGPVTPIPVLYPESASCLLRLRNKLRGVQRNLAGSLVRLSALVKSKQKAYFILSLGRSHPAVTHVSIIVQVPAQLVWHRALRPGTAYVLTELRVSKIRGQRQHVWMTSQSSRLLLLKPECVQELELELEGPLLEADPKPLPMPSNSEDKKDPESLVRYSRLLSYSGAVTGVLNEPAGLYELDGQLGLCLAYQQFRGLRRVMRPGVCLQLQDVHLLQSVGGGTRRPVLAPCLRGAVLLQSFSRQKPGAHSSRQAYGASLYEQLVWERQLGLPLYLWATKALEELACKLCPHVLRHHQFLQHSSPGSPSLGLQLLAPTLDLLAPPGSPVRNAHNEILEEPHHCPLQKYTRLQTPSSFPTLATLKEEGQRKAWASFDPKALLPLPEASYLPSCQLNRRLAWSWLCLLPSAFCPAQVLLGVLVASSHKGCLQLRDQSGSLPCLLLAKHSQPLSDPRLIGCLVRAERFQLIVERDVRSSFPSWKELSMPGFIQKQQARVYVQFFLADALILPVPRPCLHSATPSTPQTDPTGPEGPHLGQSRLFLLCHKEALMKRNFCVPPGASPEVPKPALSFYVLGSWLGGTQRKEGTGWGLPEPQGNDDNDQKVHLIFFGSSVRWFEFLHPGQVYRLIAPGPATPMLFEKDGSSCISRRPLELAGCASCLTVQDNWTLELESSQDIQDVLDANKSLPESSLTDLLSDNFTDSLVSFSAEILSRTLCEPLVASLWMKLGNTGAMRRCVKLTVALETAECEFPPHLDVYIEDPHLPPSLGLLPGARVHFSQLEKRVSRSHNVYCCFRSSTYVQVLSFPPETTISIPLPHIYLAELLQGGQSPFQATASCHIVSVFSLQLFWVCAYCTSICRQGKCTRLGSTCPTQTAISQAIIRLLVEDGTAEAVVTCRNHHVAAALGLCPREWASLLDFVQVPGRVVLQFAGPGAQLESSARVDEPMTMFLWTLCTSPSVLRPIVLSFELERKPSKIVPLEPPRLQRFQCGELPFLTHVNPRLRLSCLSIRESEYSSSLGILASSC
chain 2: QPGSSRCEEETPSLLWGLDPVFLAFAKLYIRDILDMKESRQVPGVFLYNGHPIKQVDVLGTVIGVRERDAFYSYGVDDSTGVINCICWKKLNTESVSAAPSAARELSLTSQLKKLQETIEQKTKIEIGDTIRVRGSIRTYREEREIHATTYYKVDDPVWNIQIARMLELPTIYRKVYDQPFHSSALEKEEALSNPGALDLPSLTSLLSEKAKEFLMENRVQSFYQQELEMVESLLSLANQPVIHSASSDQVNFKKDTTSKAIHSIFKNAIQLLQEKGLVFQKDDGFDNLYYVTREDKDLHRKIHRIIQQDCQKPNHMEKGCHFLHILACARLSIRPGLSEAVLQQVLELLEDQSDIVSTMEHYYTAF
chain 3: LPKPGTYYLPWEVSAGQVPDGSTLRTFGRLCLYDMIQSRVTLMAQHGSDQHQVLVCTKLVEPFHAQVGSLYIVLGELQHQQDRGSVVKARVLTCVEGMNLPLLEQAIREQRLYKQERGGSQ
stoichiometry N (negative-stain EM): 4 and 2

B2: TEN1 (subunit of purified recombinant human CST) (natural protein)
chain: MLPKPGTYYLPWEVSAGQVPDGSTLRTFGRLCLYDMIQSRVTLMAQHGSDQHQVLVCTKLVEPFHAQVGSLYIVLGELQHQQDRGSVVKARVLTCVEGMNLPLLEQAIREQRLYKQERGGSQ
stoichiometry N [1]: 1 | binding result [2]: binds

B3
binding result (cryo-EM structure): binds

B4
stoichiometry N [2]: 1
